The text below walks through data of US8987414 (AILERON THERAPEUTICS, dated 2015).

Bridge positions count the residues as written; N and C are the ends. Square brackets hold non-standard residues; d marks the D form. $4rn6 = Alpha-Me R-azide 1,4 triazole (6 carbon), forms a triazole cross-link with a second residue in the same molecule; $4a5 = Alpha-Me alkyne 1,4 triazole (5 carbon), forms a triazole cross-link with a second residue in the same molecule; $5rn6 = Alpha-Me R-azide 1,5 triazole (6 carbon); $5a5 = Alpha-Me alkyne 1,5 triazole (5 carbon); Cba = N[C@@H](CC1CCC1)C(=O)O

For experiment [1], the target named is T1, MDM2 (In-house, 41 kD) (UniProt Q00987 1-138, limits assumed).
T1 construct: Construct used in the FP assays is described only as in-house, 41 kD; also called HDM2
T1 sequence (Q00987 1-138 limits assumed): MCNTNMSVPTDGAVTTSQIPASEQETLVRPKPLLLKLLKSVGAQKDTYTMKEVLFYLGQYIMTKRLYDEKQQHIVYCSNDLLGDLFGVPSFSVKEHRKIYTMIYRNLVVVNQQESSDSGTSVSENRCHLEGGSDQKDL
Kind of experiment: competitive fluorescence polarization vs FAM-labeled linear peptide; grade of Ki (MDM2); scale in paragraph 664: ++ = >100 and <=1000 nM.

Experiment [2] deals with T1, MDM2 (In-house, 41 kD). In words: competitive fluorescence polarization vs FAM-labeled linear peptide; grade of Ki (MDM2); scale in paragraph 664: ++++ = <=10 nM. Background: Fluorescence polarisation rises when a labelled molecule tumbles more slowly, as on binding a larger partner.
In experiment [3] the target is T2, MDMX (In-house, 40 kD) (UniProt O15151 1-134, limits assumed).
T2 construct: Construct used in the FP assays is described only as in-house, 40 kD; also called MDM4
T2 sequence (looked up): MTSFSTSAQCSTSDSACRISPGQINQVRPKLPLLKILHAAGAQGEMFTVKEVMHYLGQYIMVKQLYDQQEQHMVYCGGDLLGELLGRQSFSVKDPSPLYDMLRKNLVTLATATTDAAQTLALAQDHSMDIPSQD
Kind of experiment: competitive fluorescence polarization vs FAM-labeled linear peptide; grade of Ki (MDMX); scale in paragraph 664: +++ = >10 and <=100 nM. How it is done:
(§1) The assay is performed according to the following general protocol: 1. Dilute MDMX (In-house, 40 kD) into FP buffer (High salt buffer-200 mM Nacl, 5 mM CHAPS, pH 7.5.) to make 300 nM (2×) working stock solution. 2. Add 20 µl of 300 nM (2×) of protein stock solution into each well of 96-well black HE microplate (Molecular Devices) 3. […] Then, dilute from 100 µM to 10 µM with water (dilution 1:10) and then dilute with FP buffer from 10 µM to 40 nM (dilution 1:250). This is the working solution which will be a 10 nM concentration in well (dilution 1:4). […] 4. Make unlabeled peptide dose plate with FP buffer starting with 5 µM (final) of peptide and making 5 fold serial dilutions for 6 points using following dilution scheme. 5. Dilute 10 mM (in 100% DMSO) with DMSO to 5 mM (dilution 1:2). Then, dilute from 5 mM to 500 µM with H_2O (dilution 1:10) and then dilute with FP buffer from 500 µM to 20 µM (dilution 1:25). Making 5 fold serial dilutions from 20 µM (4×) for 6 points. 6. Transfer 10 µl of serial diluted unlabeled peptides to each well which is filled with 20 µl of 300 nM of protein. 7.

The target of experiment [4] is T1, MDM2 (In-house, 41 kD). In words: competitive fluorescence polarization vs FAM-labeled linear peptide; grade of IC50 (MDM2); scale in paragraph 664: +++ = >10 and <=100 nM.
Experiment [5] deals with T2, MDMX (In-house, 40 kD). In words: competitive fluorescence polarization vs FAM-labeled linear peptide; grade of IC50 (MDMX); scale in paragraph 664: +++ = >10 and <=100 nM. The procedure: as §1
For experiment [6], the target named is T2, MDMX (In-house, 40 kD). Kind of experiment: competitive fluorescence polarization vs FAM-labeled linear peptide; grade of Ki (MDMX); scale in paragraph 664: ++++ = <=10 nM. How it is done: as §1
Experiment [7] concerns the target T1, MDM2 (In-house, 41 kD). Kind of experiment: competitive fluorescence polarization vs FAM-labeled linear peptide; grade of IC50 (MDM2); scale in paragraph 664: ++++ = <=10 nM.
Experiment [8] addresses T2, MDMX (In-house, 40 kD). Kind of experiment: competitive fluorescence polarization vs FAM-labeled linear peptide; grade of IC50 (MDMX); scale in paragraph 664: ++++ = <=10 nM. The procedure: as §1
Experiment [9] addresses T1, MDM2 (In-house, 41 kD). Kind of experiment: competitive fluorescence polarization, Ki (MDM2).
Experiment [10] concerns the target T2, MDMX (In-house, 40 kD). In words: competitive fluorescence polarization, Ki (MDMX). How it is done: as §1

B1: SP-450 (peptide)
peptide: Ac-LTF[$4rn6]AYWAQL[$4a5]AAAAA[dA]-NH2
modifications: triazole 4-11
notes: Triazole-crosslinked macrocycle of Formula I; also called Ac-LTF$4rn6AYWAQL$4a5AAAAAa-NH2
In turn, B1 returned a Ki with MDM2 (In-house, 41 kD) [1] of 100 to 1000 nM.

B2: SP-917 (peptide)
peptide: LTFCAYWAQLCAAAAAA
modifications: N-terminal acetyl (Ac); position 4 = %cs7 (alpha-methyl-D-cysteine) connected by an i to i+7 seven-methylene bis-thioether crosslinker to position 11 = %c7 (alpha-methyl-L-cysteine); position 17 = D-alanine (a); C-terminal amide (NH2)
notes: Thioether-crosslinked macrocycle of Formula II; also called Ac-LTF%cs7AYWAQL%c7AAAAAa-NH2
Turning to B2, the Ki with MDM2 (In-house, 41 kD) [2] is no more than 10 nM; in the experiment with MDMX (In-house, 40 kD) [3], 10 to 100 nM. Moreover, the IC50 with MDM2 (In-house, 41 kD) [4] lay in the range of 10 to 100 nM; with MDMX (In-house, 40 kD) [5] it was 10 to 100 nM.

B3: SP-449 (peptide)
peptide: LTFXAYWAQLXAAXA
modifications: N-terminal acetyl (Ac); position 4 = $4rn6 (alpha-Me R-azide 1,4 triazole, 6 carbon) crosslinked to position 11 = $4a5 (alpha-Me alkyne 1,4 triazole, 5 carbon); position 14 = Nle (norleucine); C-terminal amide (NH2)
notes: Triazole-crosslinked macrocycle of Formula I; also called Ac-LTF$4rn6AYWAQL$4a5AANleA-NH2
On to B3, for which the Ki in the experiment with MDM2 (In-house, 41 kD) [2] is no more than 10 nM; in the experiment with MDMX (In-house, 40 kD) [6], no more than 10 nM. Also, the IC50 in the experiment with MDM2 (In-house, 41 kD) [7] is no more than 10 nM; in the experiment with MDMX (In-house, 40 kD) [8] it was no more than 10 nM.

B4: SP-916 (peptide)
peptide: LTFCAYWAQLCAAXA
modifications: N-terminal acetyl (Ac); position 4 = %cs7 (alpha-methyl-D-cysteine) connected by an i to i+7 seven-methylene bis-thioether crosslinker to position 11 = %c7 (alpha-methyl-L-cysteine); position 14 = Nle (norleucine); C-terminal amide (NH2)
notes: Thioether-crosslinked macrocycle of Formula II; also called Ac-LTF%cs7AYWAQL%c7AANleA-NH2
Consider B4, for which the Ki with MDM2 (In-house, 41 kD) [2] is no more than 10 nM; in the experiment with MDMX (In-house, 40 kD) [6], no more than 10 nM. Also, the IC50 with MDM2 (In-house, 41 kD) [4] was 10 to 100 nM; with MDMX (In-house, 40 kD) [5], 10 to 100 nM.

B5: SP-459 (peptide)
peptide: Ac-LTA[$5rn6]EYWAQ[Cba][$5a5]SAA-NH2
modifications: triazole 4-11
notes: also called Ac-LTA$5rn6EYWAQCba$5a5SAA-NH2
With B5, the Ki in the experiment with MDM2 (In-house, 41 kD) [9] is greater than 1000 nM; with MDMX (In-house, 40 kD) [10], greater than 1000 nM.

B6: SP-460 (peptide)
peptide: Ac-LTA[$4rn6]EYWAQ[Cba][$4a5]SAA-NH2
modifications: triazole 4-11
notes: also called Ac-LTA$4rn6EYWAQCba$4a5SAA-NH2
Regarding B6, the inhibition constant (Ki) with MDM2 (In-house, 41 kD) [9] was greater than 1000 nM; in the experiment with MDMX (In-house, 40 kD) [10], greater than 1000 nM.

What is called Ki is the equilibrium dissociation constant of an inhibitor or competing ligand from its target. Read a low Ki as a stronger hold on the target. In general, IC50 refers to the concentration needed to halve the response being measured. Low readings indicate inhibition by little substance, high ones a need for much substance.
